*1 amine or outer side, *2 acyl side, *3 side chain or, on linkers, in order; H or OH if unused. Bridges are numbered along the chain shown (N, C = ends). Primed or numbered codes have the meaning given here. Where no end group is shown, it is not given here. [ ]: non-standard residue; d: D form. The star is where a group is joined. Azetidine3carboxylic = O=C(C1CN([*:1])C1)[*:2]; dimethyl = N-terminal dimethyl modification; PEG4″ = PEG4 (tetraethylene glycol) spacer; Phe(4-Cl) = N[C@@H](Cc1ccc(Cl)cc1)C(=O)O; 2Nal = N[C@@H](Cc1ccc2ccccc2c1)C(=O)O; d2Nal = N[C@H](Cc1ccc2ccccc2c1)C(=O)O; NMeCha = CN[C@@H](CC1CCCCC1)C(=O)O; NMeR = CN[C@@H](CCCNC(=N)N)C(=O)O; Palmitoyl = CCCCCCCCCCCCCCCC(=O)*; hArg = N=C(N)NCCCC[C@H](N)C(=O)O; NMeQ = CN[C@@H](CCC(N)=O)C(=O)O; Cha = N[C@@H](CC1CCCCC1)C(=O)O; dCha = N[C@H](CC1CCCCC1)C(=O)O; AllylGly = C=CC[C@H](N)C(=O)O; αMeL = CC(C)C[C@](C)(N)C(=O)O; Cba = N[C@@H](CC1CCC1)C(=O)O; S5 = C=CCCC[C@](C)(N)C(=O)O; Nle = CCCC[C@H](N)C(=O)O; Ac4c = NC1(C(=O)O)CCC1
T1: β-catenin (UniProt P35222 1-781, limits assumed)
T1 construct: also called beta-catenin
T1 sequence (looked up): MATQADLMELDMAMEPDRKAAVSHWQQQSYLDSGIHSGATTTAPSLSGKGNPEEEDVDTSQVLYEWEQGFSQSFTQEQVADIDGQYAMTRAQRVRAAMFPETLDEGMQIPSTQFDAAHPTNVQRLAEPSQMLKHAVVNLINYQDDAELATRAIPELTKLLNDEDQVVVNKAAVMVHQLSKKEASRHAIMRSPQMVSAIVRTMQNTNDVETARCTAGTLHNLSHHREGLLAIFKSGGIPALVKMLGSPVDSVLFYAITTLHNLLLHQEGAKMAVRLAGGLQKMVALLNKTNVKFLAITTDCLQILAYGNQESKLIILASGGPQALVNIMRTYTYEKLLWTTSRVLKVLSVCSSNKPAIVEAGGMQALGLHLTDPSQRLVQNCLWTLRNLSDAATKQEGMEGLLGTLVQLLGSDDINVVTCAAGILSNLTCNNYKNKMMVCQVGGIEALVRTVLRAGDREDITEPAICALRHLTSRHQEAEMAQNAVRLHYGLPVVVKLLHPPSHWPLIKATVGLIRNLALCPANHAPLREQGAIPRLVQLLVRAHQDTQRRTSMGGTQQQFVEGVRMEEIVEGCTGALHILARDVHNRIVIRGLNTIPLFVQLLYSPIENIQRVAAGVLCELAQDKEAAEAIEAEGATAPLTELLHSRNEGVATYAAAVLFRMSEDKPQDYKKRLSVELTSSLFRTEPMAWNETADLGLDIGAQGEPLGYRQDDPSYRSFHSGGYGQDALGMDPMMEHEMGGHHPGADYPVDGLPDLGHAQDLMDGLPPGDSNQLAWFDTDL

B1: SEQ ID NO: 183 (peptide)
peptide: Ac-H[hArg]QRSLQTLR[S5]IQR[S5][Cha][2Nal]-NH2
modifications: staple 11-15
SMILES: CC[C@H](C)[C@@H]1NC(=O)[C@@](C)(NC(=O)[C@H](CCCNC(=N)N)NC(=O)[C@H](CC(C)C)NC(=O)[C@@H](NC(=O)[C@H](CCC(N)=O)NC(=O)[C@H](CC(C)C)NC(=O)[C@H](CO)NC(=O)[C@H](CCCNC(=N)N)NC(=O)[C@H](CCC(N)=O)NC(=O)[C@H](CCCCNC(=N)N)NC(=O)[C@H](Cc2c[nH]cn2)NC(C)=O)[C@@H](C)O)CCCC=CCCC[C@@](C)(C(=O)N[C@@H](CC2CCCCC2)C(=O)N[C@@H](Cc2ccc3ccccc3c2)C(N)=O)NC(=O)[C@H](CCCNC(=N)N)NC(=O)[C@H](CCC(N)=O)NC1=O
B2: SEQ ID NO: 174 (peptide)
peptide: Ac-LQTLR[S5]IQR[S5][NMeCha][2Nal]-NH2
modifications: staple 6-10; not fully specified (residue 2); printed as L(N-methylQ)TLRXIQRX(N-methylCha)(2-Nal); also: N-methylQ at 2: D or L (both stated)
B3: SEQ ID NO: 189 (peptide)
peptide: Ac-HRQRSLQTL[NMeR][S5]IQR[S5][Cha][2Nal]-NH2
modifications: staple 11-15
SMILES: CC[C@H](C)[C@@H]1NC(=O)[C@@](C)(NC(=O)[C@H](CCCNC(=N)N)N(C)C(=O)[C@H](CC(C)C)NC(=O)[C@@H](NC(=O)[C@H](CCC(N)=O)NC(=O)[C@H](CC(C)C)NC(=O)[C@H](CO)NC(=O)[C@H](CCCNC(=N)N)NC(=O)[C@H](CCC(N)=O)NC(=O)[C@H](CCCNC(=N)N)NC(=O)[C@H](Cc2c[nH]cn2)NC(C)=O)[C@@H](C)O)CCCC=CCCC[C@@](C)(C(=O)N[C@@H](CC2CCCCC2)C(=O)N[C@@H](Cc2ccc3ccccc3c2)C(N)=O)NC(=O)[C@H](CCCNC(=N)N)NC(=O)[C@H](CCC(N)=O)NC1=O
B4: SEQ ID NO: 178 (peptide)
peptide: Ac-HRQRSLQTLR[S5]IQR[S5][Azetidine3carboxylic][2Nal]-NH2
modifications: staple 11-15
SMILES: CC[C@H](C)[C@@H]1NC(=O)[C@@](C)(NC(=O)[C@H](CCCNC(=N)N)NC(=O)[C@H](CC(C)C)NC(=O)[C@@H](NC(=O)[C@H](CCC(N)=O)NC(=O)[C@H](CC(C)C)NC(=O)[C@H](CO)NC(=O)[C@H](CCCNC(=N)N)NC(=O)[C@H](CCC(N)=O)NC(=O)[C@H](CCCNC(=N)N)NC(=O)[C@H](Cc2c[nH]cn2)NC(C)=O)[C@@H](C)O)CCCC=CCCC[C@@](C)(C(=O)N2CC(C(=O)N[C@@H](Cc3ccc4ccccc4c3)C(N)=O)C2)NC(=O)[C@H](CCCNC(=N)N)NC(=O)[C@H](CCC(N)=O)NC1=O
B5: SEQ ID NO: 123 (peptide)
peptide: Ac-L[NMeQ]T[Cha]R[S5]IQR[S5][Cba][2Nal]-NH2
modifications: staple 6-10; not fully specified; printed as L(N-methylQ)T(Cha)RXIQRX(CBA)(2-Nal)
B6: SEQ ID NO: 195 (peptide)
peptide: Ac-L[NMeQ]TLR[S5]IQR[S5][Phe(4-Cl)][2Nal]-NH2
modifications: staple 6-10; not fully specified; printed as L(N-methylQ)TLRXIQRX(4-Cl-Ph)(2-Nal), X/X stapled, (S) α-methyl, N-terminal Ac, C-terminal NH2
B7: SEQ ID NO: 129 (peptide)
peptide: Ac-L[NMeQ]TLR[S5][Cba]QR[S5][Cba][2Nal]-NH2
modifications: staple 6-10; not fully specified; printed as L(N-methylQ)TLRX(CBA)QRX(CBA)(2-Nal)
B8: SEQ ID NO: 172 (peptide)
peptide: Ac-LQTLR[S5]IQR[S5][αMeL][2Nal]-NH2
modifications: staple 6-10; not fully specified (residue 2); printed as L(N-methylQ)TLRXIQRX(α-methylL)(2-Nal); also: N-methylQ at 2: D or L (both stated)
B9: SEQ ID NO: 158 (peptide)
peptide: Ac-H[NMeR]QRSLQTLR[S5]IQR[S5][Cba][2Nal]-NH2
modifications: staple 11-15; not fully specified; printed as H(R-Me)QRSLQTLRXIQRX(CBA)(2-Nal), X/X stapled, (S) α-methyl, N-terminal Ac, C-terminal NH2
B10: SEQ ID NO: 184 (peptide)
peptide: Ac-HRQ[NMeR]SLQTLR[S5]IQR[S5][Cha][2Nal]-NH2
modifications: staple 11-15
SMILES: CC[C@H](C)[C@@H]1NC(=O)[C@@](C)(NC(=O)[C@H](CCCNC(=N)N)NC(=O)[C@H](CC(C)C)NC(=O)[C@@H](NC(=O)[C@H](CCC(N)=O)NC(=O)[C@H](CC(C)C)NC(=O)[C@H](CO)NC(=O)[C@H](CCCNC(=N)N)N(C)C(=O)[C@H](CCC(N)=O)NC(=O)[C@H](CCCNC(=N)N)NC(=O)[C@H](Cc2c[nH]cn2)NC(C)=O)[C@@H](C)O)CCCC=CCCC[C@@](C)(C(=O)N[C@@H](CC2CCCCC2)C(=O)N[C@@H](Cc2ccc3ccccc3c2)C(N)=O)NC(=O)[C@H](CCCNC(=N)N)NC(=O)[C@H](CCC(N)=O)NC1=O
B11: SEQ ID NO: 173 (peptide)
peptide: Ac-LQTLR[S5]IQR[S5][dCha][2Nal]-NH2
modifications: staple 6-10; not fully specified (residue 2); printed as L(N-methylQ)TLRXIQRXD(Cha)(2-Nal); also: N-methylQ at 2: D or L (both stated)
B12: SEQ ID NO: 188 (peptide)
peptide: Ac-HRQRSLQTLR[S5]IQR[S5][Cha][d2Nal]-NH2
modifications: staple 11-15
SMILES: CC[C@H](C)[C@@H]1NC(=O)[C@@](C)(NC(=O)[C@H](CCCNC(=N)N)NC(=O)[C@H](CC(C)C)NC(=O)[C@@H](NC(=O)[C@H](CCC(N)=O)NC(=O)[C@H](CC(C)C)NC(=O)[C@H](CO)NC(=O)[C@H](CCCNC(=N)N)NC(=O)[C@H](CCC(N)=O)NC(=O)[C@H](CCCNC(=N)N)NC(=O)[C@H](Cc2c[nH]cn2)NC(C)=O)[C@@H](C)O)CCCC=CCCC[C@@](C)(C(=O)N[C@@H](CC2CCCCC2)C(=O)N[C@H](Cc2ccc3ccccc3c2)C(N)=O)NC(=O)[C@H](CCCNC(=N)N)NC(=O)[C@H](CCC(N)=O)NC1=O

molecular target: T1, β-catenin; test: ALPHA Screen (BCL9/β-catenin);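 note: bead proximity readout with the polypeptide linked to donor beads and β-catenin fixed on acceptor beads, their binding bringing the beads close enough to emit signal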
Text: In this assay, a polypeptide is conjugated to a donor bead and its target protein (i.e., β-catenin) is attached to an acceptor bead. When the two beads are in proximity due to the binding of the polypeptide to the target protein, a signal is generated and the binding affinity of the polypeptide can be quantitatively calculated. The assay may be conducted in the presence or absence of an unconjugated control polypeptide.

For B1, which IC50 is on record?
The IC50 was 119 nM.

B2 was tested. Which IC50 did it give?
Its IC50 is 6880 nM.

dimethyl-L[NMeQ]TLR[S5]IQR[S5][Cba][2Nal]-NH2 (staple 6-10; not fully specified) [SEQ ID NO: 144] was tested. Which IC50 did it give?
The IC50 was 2130 nM.

Which IC50 does the source give for Ac-HR[NMeQ]RSL[NMeQ]TLR[S5]IQR[S5][Cba][2Nal]-NH2 (staple 11-15) [SEQ ID NO: 155] here?
Its IC50 is 281 nM.

With B3 as the binder, how does the IC50 read?
Its IC50 is 247 nM.

For LQTLR[Nle]IQR[Nle]L[2Nal]PD [SEQ ID NO: 54], which IC50 is on record?
The IC50 was 14600 nM.

For B4, which IC50 is on record?
Its IC50 is 563 nM.

With B5 as the binder, how does the IC50 read?
Its IC50 is 3620 nM.

Which IC50 does the source give for B6 here?
The IC50 was 13000 nM.

How did the IC50 turn out when B7 was run?
Its IC50 is 2060 nM.

For Ac-LQTLR[S5]IQR[S5][AllylGly][2Nal]-NH2 (staple 6-10) [SEQ ID NO: 175], which IC50 is on record?
The IC50 was 9710 nM.

With B8 as the binder, how does the IC50 read?
Its IC50 is 8000 nM.

B9 was tested. Which IC50 did it give?
Its IC50 is 383 nM.

With Ac-HRQRSL[NMeQ]TLR[S5]IQR[S5][Cba][2Nal]-NH2 (staple 11-15) [SEQ ID NO: 153] as the binder, how does the IC50 read?
The IC50 was 261 nM.

B10 was tested. Which IC50 did it give?
Its IC50 is 195 nM.

How did the IC50 turn out when B11 was run?
The IC50 was 14700 nM.

How did the IC50 turn out when Ac-RERSLQTLR[S5]IQR[S5]L[2Nal]-NH2 (staple 10-14; not fully specified; printed as RERSLQTLRXIQRXL(2-Nal)) [SEQ ID NO: 5] was run?
The IC50 was 1450 nM.

With Ac-QERSLQTLR[S5]IQR[S5]L[2Nal]-NH2 (staple 10-14; not fully specified; printed as QERSLQTLRXIQRXL(2-Nal)) [SEQ ID NO: 10] as the binder, how does the IC50 read?
Its IC50 is 4200 nM.

Ac-RERSLQTLR[S5]IQR[S5][Cba][2Nal]-NH2 (staple 10-14; not fully specified; printed as RERSLQTLRXIQRX(CBA)(2-Nal)) [SEQ ID NO: 13] was tested. Which IC50 did it give?
The IC50 was 844 nM.

For Ac-HRQRSLQTLR[S5]IQR[S5][Ac4c][2Nal]-NH2 (staple 11-15) [SEQ ID NO: 176], which IC50 is on record?
The IC50 was 236 nM.

How did the IC50 turn out when B12 was run?
Its IC50 is 387 nM.

For {Palmitoyl-PEG4″}-HRQRSLQTLR[S5]IQR[S5][Cba][2Nal]-NH2 (staple 11-15) [SEQ ID NO: 160], which IC50 is on record?
Its IC50 is 361 nM.

How did the IC50 turn out when {4‑biphenyl acetic acid}-L[NMeQ]TLR[S5]IQR[S5][Cba][2Nal]-NH2 (staple 6-10; not fully specified) [SEQ ID NO: 143] was run?
Its IC50 is 6660 nM.
